Columns and labels:
[1] = molecular target: T1, rat IGF-1R expressed on immune cells (rat, UniProt P24062 31-1370); test: FACS on granulocytes, monocytes, lymphocytes
T1 construct: whole, on cells

human IGF-1R(1-903)-Fc [2] = molecular target: T2, human IGF-1R(1-903)-Fc (human, UniProt P08069 31-933); test: competition ELISA: biotinylated hIGF-1R-Fc on streptavidin plate, 320 nM human IGF-1 His, detection with anti-His-HRP; blocked ligand human IGF-1 His
T2 construct: Made by Biogen Idec; Multimerises through IGF-1R and Fc; also called hIGF-1R-Fc; IGF-1R-Fc; not shown: C-terminal human IgG1-Fc tag
Experimental: hIGF-1R-Fc was biotinylated using EZ-Link Sulfo-NHS-LC-Biotin according to the protocol provided by the manufacturer (Pierce Cat. No. 21335). Biotinylated human IGF-1R-Fc at 5 μg/ml was added to the wells of SigmaScreen streptavidin-coated 96-well plates (Sigma, Cat. No. M5432-5EA; Sigma-Aldrich Corp. (St. Louis, Mo., USA)) at 100 μL/well and incubated overnight at 2-8° C. The plates were then washed four times with 200 μL/well PBST. […] The dilutions were added to the plates in duplicate at 100 μL/well and the plates were incubated at RT for 1 hour. The plates were then washed four times with 200 μL/well PBST. An HRP-conjugated anti-Histag antibody (Penta-His HRP Conjugate, QIAGEN, Cat. No. 1014992) was diluted 1:1000 in PBST and added to plates at 100 μL/well, and the plates were incubated at RT for one hour. The plates were then washed four times with 200 μL/well PBST. SureBlue Reserve TMB Microwell Peroxidase Substrate (KPL, Cat. No. 53-00-01) was added to plates at 100 μL/well followed by 1% phosphoric acid at 100 μL/well once the desired reaction was observed. The absorbance of each well was determined at 450 nm, and the results were normalized and plotted against the log of antibody concentration.

[3] = molecular target: T3, human insulin receptor expressed in mammalian cells (UniProt P06213 28-1382, limits assumed); test: immunoprecipitation from IR CHO lysate, western blot with mouse anti-human IR
T3 construct: whole, on cells; Cells were solubilised with Triton X-100 before immunoprecipitation; also called INSR; IR
Experimental: Recombinant IGF-1R and insulin receptor (IR) were independently expressed in mammalian cells (3T3 or CHO). […] Antibody/antigen complexes were released from the beads by acid treatment, applied to Tris-Glycine SDS-PAGE gels and blotted to nitrocellulose membranes. Detection was performed using mouse anti-human IR (FIG. 24A) or mouse anti-human IGF-1R (FIG. 24B) and goat α-mouse IgG.

human IGF-1R(1-903)-Fc [4] = molecular target: T2, human IGF-1R(1-903)-Fc; test: ELISA, plate coated with soluble IGF-1 receptor Fc fusion protein, detection with anti-human kappa-HRP
Experimental: The plate was washed with phosphate-buffered saline (PBS, Irvine Scientific, Cat#9240), pH 7.4 plus 0.025% Tween 20 in the Skan Washer 300 (Skatron Instruments), blocked with buffer containing 1% nonfat milk, 0.05% Tween 20 in PBS, pH 7.4, and then incubated at room temperature for 1 hour. After incubation plate was washed with PBS plus 0.025% Tween 20 in the Skan Washer 300. […] Following a one hour incubation at room temperature, plate was washed with PBS plus 0.025% Tween 20 in the Skan Washer 300. […] Plate incubated for 1 hour at room temperature was washed with PBS plus 0.025% Tween 20 in the Skan Washer 300. […] The absorbance was measured at 450 nm, background 540 nm for TMB using the Molecular Devices plate reader. Data was analyzed using the SOFTMAX PRO software package version 4.3 LS (Molecular Devices Corp.).

[5] = molecular target: T4, human IGF-1R(1-902)-His10 (human, UniProt P08069 31-932); test: SPR, antibody over captured IGF-1R-10His
T4 construct: Cy5-labelled in tr-FRET; also called hIGF-1R-His10; IGF-1R-His
Experimental: (§1) All surface plasmon resonance (SPR) experiments were performed on a Biacore 3000 set to 25° C. using HBS-EP (Biacore, Cat. No. BR-1001-88) as the running buffer. A biotin-labeled anti-HisTag antibody (biotin-PENTA-His, Qiagen Cat. No. 34440) was immobilized to saturation on a Biacore SA chip (Cat. No. BR-1000-32) surface by injection at 500 nM in HBS-EP buffer. […] Subsequent to IGF-1R injections, flow rates were increased to 20 μL/min. A second, 130 μL injection of anti-IGF-1R antibody or Fab was performed to investigate interactions with the receptor. Each antibody and Fab was serially diluted from 64 nM to 0.5 nM to obtain concentration dependent kinetic binding curves. Each injection series was regenerated using 3×10 μL injections of 10 mM Acetate, pH 4.0, at 20 μL/min. Each curve was double referenced using (1) data obtained from a streptavidin surface devoid of IGF-1R and (2) data from a primary injection of IGF-1R followed by a secondary injection of HBS-EP buffer. The concentration series for each antibody and Fab was fit to the 1:1 binding model provided within the BiaEvaluation software of the manufacturer.
(§2) The rates at which the antibodies accumulate on the IGF-1R coated surface when applied at various concentrations as well as the rates at which they dissociated during applications of pure buffer were investigated by fitting the data to a 1:1 binding model. Approximate kinetic rate constants and equilibrium dissociation constant were calculated (Table 14).

[6] = molecular target: T5, human IGF-1R expressed on cells (human, UniProt P08069 31-1367); test: cell-based or functional assay
[7] = molecular target: cynomolgus IGF-1R expressed on cells (cynomolgus macaque, UniProt G7P9I7 31-1343); test: binding to CHO transfectants
[8] = molecular target: T6, Rhesus IGF-1R expressed on CHO cells (rhesus monkey, UniProt I2CWY3 31-1367); test: binding to CHO transfectants
T6 construct: whole, on cells; also called Rhesus IGF-1R/CHO
T6 sequence (I2CWY3 entry or part of it): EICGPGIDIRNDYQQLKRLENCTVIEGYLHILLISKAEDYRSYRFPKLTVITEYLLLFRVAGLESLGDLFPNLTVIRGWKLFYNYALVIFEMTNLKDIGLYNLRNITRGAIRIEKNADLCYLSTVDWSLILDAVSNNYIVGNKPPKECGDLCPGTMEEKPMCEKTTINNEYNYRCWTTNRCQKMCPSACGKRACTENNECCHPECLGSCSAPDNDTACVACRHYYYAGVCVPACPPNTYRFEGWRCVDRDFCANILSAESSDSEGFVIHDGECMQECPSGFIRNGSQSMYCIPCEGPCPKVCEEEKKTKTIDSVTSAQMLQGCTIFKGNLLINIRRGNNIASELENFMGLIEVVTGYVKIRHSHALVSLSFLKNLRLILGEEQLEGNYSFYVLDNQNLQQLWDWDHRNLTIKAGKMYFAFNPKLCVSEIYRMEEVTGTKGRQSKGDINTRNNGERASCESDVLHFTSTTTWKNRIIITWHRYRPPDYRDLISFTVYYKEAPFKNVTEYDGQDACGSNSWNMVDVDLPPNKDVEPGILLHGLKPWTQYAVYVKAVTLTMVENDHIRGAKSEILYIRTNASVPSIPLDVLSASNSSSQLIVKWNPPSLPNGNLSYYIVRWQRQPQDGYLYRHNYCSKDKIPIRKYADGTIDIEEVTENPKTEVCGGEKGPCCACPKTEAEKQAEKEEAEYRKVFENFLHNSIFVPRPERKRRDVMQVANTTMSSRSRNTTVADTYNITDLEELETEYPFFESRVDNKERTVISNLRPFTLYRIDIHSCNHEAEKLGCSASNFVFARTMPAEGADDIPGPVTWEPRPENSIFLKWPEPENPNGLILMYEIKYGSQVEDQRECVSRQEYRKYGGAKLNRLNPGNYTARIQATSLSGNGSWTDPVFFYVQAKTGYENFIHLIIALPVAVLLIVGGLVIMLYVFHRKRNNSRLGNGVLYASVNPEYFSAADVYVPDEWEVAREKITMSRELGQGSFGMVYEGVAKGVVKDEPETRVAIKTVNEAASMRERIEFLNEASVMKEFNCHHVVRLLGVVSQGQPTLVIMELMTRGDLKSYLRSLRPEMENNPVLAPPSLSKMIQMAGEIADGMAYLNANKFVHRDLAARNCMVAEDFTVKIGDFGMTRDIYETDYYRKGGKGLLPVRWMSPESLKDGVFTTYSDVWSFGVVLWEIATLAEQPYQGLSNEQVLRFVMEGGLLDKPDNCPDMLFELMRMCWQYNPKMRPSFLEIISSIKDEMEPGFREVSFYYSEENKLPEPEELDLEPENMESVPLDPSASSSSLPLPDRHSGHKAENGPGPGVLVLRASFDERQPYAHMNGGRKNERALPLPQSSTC

[9] = molecular target: T7, IGF-1R (soluble, construct not stated) (human, UniProt P08069 31-932, limits assumed); test: ligand blocking, competitor IGF-1; IGF-1 as the blocked ligand
T7 construct: whole entry named; also called Solube IGF-1R Protein; soluble recombinant human IGF-1R

human IGF-1R(1-903)-Fc [10] = molecular target: T2, human IGF-1R(1-903)-Fc; test: competition ELISA: biotinylated hIGF-1R-Fc on streptavidin plate, 320 nM human IGF-2 His, detection with anti-His-HRP; blocked ligand human IGF-2 His
human INSR(28-956)-His10 = molecular target: T8, human INSR(28-956)-His10 (human, UniProt P06213 28-956); test: SPR, INSR over immobilised antibody
T8 construct: range 28-956; Bought (R&D Systems 1544-IR); also called rh-INSR; soluble insulin receptor

[11] = molecular target: T7, IGF-1R (soluble, construct not stated …); test: binding to soluble IGF-1R protein
[12] = molecular target: T5, human IGF-1R expressed on cells; test: binding to tumor cells
[13] = molecular target: T7, IGF-1R (soluble, construct not stated …); test: ligand blocking, competitor IGF-2; IGF-2 as the blocked ligand
[14] = molecular target: T4, human IGF-1R(1-902)-His10; test: SPR, antibody over IGF-1R-10His captured by anti-His, 1:1 model, approximate
Experimental: as §1, with “The concentration series for each antibody and Fab was fit to the 1:1 binding model provided within the BiaEvaluation software of the manufacturer.” left out
as §2

human IGF-1R(1-903)-Fc [15] = molecular target: T2, human IGF-1R(1-903)-Fc; test: ELISA on hIGF-1R-Fc, competitor biotinylated M13-C06
[16] = molecular target: T5, human IGF-1R expressed on cells; test: flow cytometry, MCF-7 cells
Experimental: The ability of Fabs to bind to the wild type IGF-1R was determined by flowcytometry using MCF-7 tumor cell line.
MCF-7 cells (Human Breast Adenocarcinoma from NCI) were split 24 hours prior to the setup of the assay to obtain 70% confluent monolayer. Routinely, MCF-7 cell line was maintained within 20 passages. Cells were lifted with cell dissociation buffer (Gibco catalog #13151-014), counted, washed and adjusted to 1×10⁶ cells/ml and one ml of cells were then added to each tube (12×75 mm tube Falcon catalog# 352054). Cells were pelleted and supernatant removed by centrifugation at 1200 rpm for 5 min and 100 μl of diluted antibodies were then added to the cell pellet. Purified Fabs were tested at a starting concentration of either 210 or 60 μg/ml with 1:3 dilutions in FACS buffer, down to 0.001 μg/ml. FACS buffer used throughout the assay was PBS (without Ca++/Mg++) containing 1% BSA (Sigma catalog# A-7906; Sigma-Aldrich Corp. (St. Louis, Mo., USA)) and 0.1% Sodium Azide (Sigma catalog #S2002). […] Samples were allowed to incubate on ice for 1 hour and 15 minutes then were washed with 2 ml FACS buffer and centrifuged at 1200 rpm for 5 minutes at 4° C. The supernatant was aspirated and 100 μl of the secondary detection antibody was added to each corresponding tube in FACS buffer. Samples were then incubated for 30 minutes on ice, in the dark. Cells were washed as described above, then, re-suspended in […] FACS buffer per tube/sample.
Cells were stained for live cell determination with Propidium Iodide staining solution (PI for dead cell exclusion; BD Pharmingen catalog# 51-66211E or 556463; use at 1:500 final in FACS buffer). Samples were run on the FACSCalibur instrument (Becton Dickinson) with 10,000 live events collected per sample.

[17] = molecular target: T9, hIGF-1R-Fc mutant SD110 (E533H) (human, UniProt P08069 31-933); test: SPR, Fab over captured mutant
T9 construct: not shown: C-terminal human IgG1-Fc tag

[18] = molecular target: T10, hIGF-1R-Fc mutant SD102 (E459A, S460A) (human, UniProt P08069 31-933); test: SPR, Fab over captured mutant
T10 construct: not shown: C-terminal human IgG1-Fc tag

[19] = molecular target: T11, hIGF-1R-Fc mutant SD109 (Y482A, R483W) (human, UniProt P08069 31-933); test: SPR, Fab over captured mutant
T11 construct: not shown: C-terminal human IgG1-Fc tag

[20] = molecular target: T12, hIGF-1R-Fc mutant SD104 (H464A) (human, UniProt P08069 31-933); test: SPR, Fab over captured mutant
T12 construct: not shown: C-terminal human IgG1-Fc tag

[21] = molecular target: T13, hIGF-1R-Fc mutant SD103 (D461A, V462T) (human, UniProt P08069 31-933); test: SPR, Fab over captured mutant
T13 construct: not shown: C-terminal human IgG1-Fc tag

[22] = molecular target: T14, hIGF-1R-Fc mutant SD015 (H464E) (human, UniProt P08069 31-933); test: SPR, Fab over captured mutant
T14 construct: not shown: C-terminal human IgG1-Fc tag

[23] = molecular target: T15, hIGF-1R-Fc mutant SD113 (E570A, I571T) (human, UniProt P08069 31-933); test: SPR, Fab over captured mutant
T15 construct: not shown: C-terminal human IgG1-Fc tag

[24] = molecular target: T16, hIGF-1R-Fc mutant SD108 (H480E) (human, UniProt P08069 31-933); test: SPR, Fab over captured mutant
T16 construct: not shown: C-terminal human IgG1-Fc tag

[25] = molecular target: T4, human IGF-1R(1-902)-His10; test: SPR, Fab over captured IGF-1R-10His
Experimental: as §1
To obtain discrete affinities, Fab fragments of each antibody were generated using papain digestion as described above.

T1 sequence (P24062 31-1370): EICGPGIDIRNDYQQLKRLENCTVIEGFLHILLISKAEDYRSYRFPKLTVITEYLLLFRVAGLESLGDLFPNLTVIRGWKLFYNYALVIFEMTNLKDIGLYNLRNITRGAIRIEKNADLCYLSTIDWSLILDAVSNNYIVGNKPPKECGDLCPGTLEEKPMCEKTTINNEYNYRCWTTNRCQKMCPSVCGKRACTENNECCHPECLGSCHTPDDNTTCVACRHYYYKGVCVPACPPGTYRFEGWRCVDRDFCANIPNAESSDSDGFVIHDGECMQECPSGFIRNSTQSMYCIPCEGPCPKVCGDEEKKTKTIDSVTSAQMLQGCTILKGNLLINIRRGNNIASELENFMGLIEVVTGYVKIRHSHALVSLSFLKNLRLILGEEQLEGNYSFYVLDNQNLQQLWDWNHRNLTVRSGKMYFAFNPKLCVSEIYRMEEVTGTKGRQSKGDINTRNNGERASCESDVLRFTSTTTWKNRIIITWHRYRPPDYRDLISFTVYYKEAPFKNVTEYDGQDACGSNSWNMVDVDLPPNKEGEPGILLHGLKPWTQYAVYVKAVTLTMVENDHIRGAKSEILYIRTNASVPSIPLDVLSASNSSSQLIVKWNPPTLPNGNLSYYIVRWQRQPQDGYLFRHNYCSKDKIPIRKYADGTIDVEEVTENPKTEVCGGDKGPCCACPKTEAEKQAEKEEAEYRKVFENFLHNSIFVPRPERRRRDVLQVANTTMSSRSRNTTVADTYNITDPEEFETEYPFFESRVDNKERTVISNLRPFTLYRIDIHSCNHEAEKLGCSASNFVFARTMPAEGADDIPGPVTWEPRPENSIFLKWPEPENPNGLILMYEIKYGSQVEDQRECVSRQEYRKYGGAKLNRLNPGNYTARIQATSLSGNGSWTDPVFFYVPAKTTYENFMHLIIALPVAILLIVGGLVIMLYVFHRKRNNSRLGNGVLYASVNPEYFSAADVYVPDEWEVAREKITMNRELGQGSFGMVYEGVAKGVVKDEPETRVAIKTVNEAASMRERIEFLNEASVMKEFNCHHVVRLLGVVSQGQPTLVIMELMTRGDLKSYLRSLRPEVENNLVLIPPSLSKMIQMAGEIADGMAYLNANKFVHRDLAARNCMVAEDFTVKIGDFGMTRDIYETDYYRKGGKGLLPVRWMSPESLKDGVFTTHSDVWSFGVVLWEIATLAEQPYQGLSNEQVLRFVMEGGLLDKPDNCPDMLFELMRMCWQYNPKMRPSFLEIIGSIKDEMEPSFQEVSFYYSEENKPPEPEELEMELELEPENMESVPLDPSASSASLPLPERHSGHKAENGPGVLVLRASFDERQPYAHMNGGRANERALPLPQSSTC

B1: M13-C06.G4.P.agly (antibody, human IgG4 S228P, kappa, V domains shown)
VH: EVQLLESGGGLVQPGGSLRLSCAASGFTFSIYRMQWVRQAPGKGLEWVSGISPSGGTTWYADSVKGRFTISRDNSKNTLYLQMNSLRAEDTAVYYCARWSGGSGYAFDIWGQGTMVTVSS
VL: DIQMTQSPLSLSASVGDRVTITCQASRDIRNYLNWYQQKPGKAPKLLIYDASSLQTGVPSRFGGSGSGTDFSFTIGSLQPEDIATYYCQQFDSLPHTFGQGTKLEIKR
notes: Full-length human aglycosylated IgG4.P (S228P/T299A, EU), kappa; Places that say only 'M13-C06 antibody' were assigned to this version; Labelled with Eu chelate or biotin in some assays; also called M13-C06_Ab; Eu-C06
binding result [1]: no binding
IC50 (read off the curve) (human IGF-1R(1-903)-Fc [2]): ~1 nM
binding result [3]: no binding
EC50 (read off the curve) (human IGF-1R(1-903)-Fc [4]): ~0.04 nM
koff [5]: 0.00025 s⁻¹
kon [5]: 1.8e+06 M⁻¹ s⁻¹
inhibition of IGF-1 and IGF-2 mediated IGF-1R receptor phosphorylation (EC50) [6]: < 1 nM
EC50 [7]: 0.47 nM
EC50 [8]: 0.27 nM
IC50 [9]: 0.979 nM
IC50 (read off the curve) (human IGF-1R(1-903)-Fc [10]): ~1 nM
binding result (human INSR(28-956)-His10): no binding (tested: 2 µM)
EC50 [11]: 0.0422 nM
EC50 [12]: 0.22 nM
IC50 [13]: 0.525 nM
Kd [14]: 0.13 nM
percent competition (relative to self-competition) (human IGF-1R(1-903)-Fc [15]): 90 to 100%

B2: M14-C03 Fab (Fab, V domains shown)
VH: EVQLLESGGGLVQPGGSLRLSCAASGFTFSKYMMSWVRQAPGKGLEWVSYISPSGGLTWYADSVKGRFTISRDNSKNTLYLQMNSLRAEDTAVYYCARDGARGYGMDVWGQGTTVTVSS
VL: DIQMTQSPATLSLSPGERATLSCRASQSVSSYLAWYQQKPGQAPRLLIYDASNRATGIPARFSGSGSGTDFTLTISSLEPEDFAVYYCQQRSNWPPEVTFGPGTKVDIK
notes: Human phage Fab, kappa
EC50 [16]: 25.4 nM
binding result [17]: no binding (tested: 30 nM)
binding result [18]: no binding (tested: 30 nM)
binding result [19]: no binding (tested: 30 nM)
binding result [20]: no binding (tested: 30 nM)
binding result [21]: no binding (tested: 30 nM)
binding result [22]: no binding (tested: 30 nM)
binding result [23]: no binding (tested: 30 nM)
binding result [24]: no binding (tested: 30 nM)
Kd [25]: 4.9 nM
koff [25]: 0.00094 s⁻¹
kon [25]: 190000 M⁻¹ s⁻¹
